Measurements from patent US20050271676A1, “Inducing cellular immune responses to human immunodeficiency virus-1 using peptide and nucleic acid compositions” (Epimmune Inc., priority 1993, published 2005).
No end group written: not given here.

Columns and labels:
[1] = biological target: HLA-A*2402 (Homo sapiens, UniProt P04439, D101N/D140Y/D185E/E176V/E190D/F33S/G103R/G107R/I119L/I121M/I306V/K335N/L105A/L180Q/L300P/N151K/N90K/Q86E/Q94H/R106L/R138H/R89G/T104I/T345S/V100E/W191G/Y123F); assay: purified HLA class I binding assay, A*2402
[2] = biological target: HLA-A*6801 (Homo sapiens, UniProt P04439, A269V/D185E/E176V/E277Q/E87N/F33Y/G231S/I121M/I166T/I218V/L180W/L300P/L318F/N151K/P208A/P217A/Q86R/R169H/T345S); assay: purified HLA class I binding assay, A*6801; details: for A*6801 binding information: Table IX, unit not given
[3] = biological target: HLA-A*1101 (Homo sapiens, UniProt P04439, A114D/D185E/E176A/F33Y/L180Q/S129P/T187R); assay: purified HLA class I binding assay, A*1101
[4] = biological target: HLA-A*3101 (Homo sapiens, UniProt P04439, A270S/D185E/E176V/E277Q/F33T/G231S/G80R/H175R/I121M/I218V/I322F/K168Q/L300P/L318F/M331R/P217A/Q94H/R138Q/T323A/T345S/T97I/V358M); assay: purified HLA class I binding assay, A*3101; details: for A*3101 binding information: Table IX, unit not given
[5] = biological target: T1, HLA-A*0301 (Homo sapiens, UniProt P04439); assay: purified HLA class I binding assay, A*0301; details: for A*0301 binding information: Table IX
T1 construct: endogenous in cells; host or cells: GM3107

[6] = biological target: HLA-A*0201 (Homo sapiens, UniProt P04439, D140Y/D185E/D98H/E176V/E277Q/G131W/G231S/I119V/I121R/I166T/I218V/L300P/L318F/N151K/N90K/P208A/P217A/Q86G/Q94H/R138H/R169H/T345S); assay: purified HLA class I binding assay, A*0201; details: HIV A02 super motif peptides, Table VIII; unit not given
[7] = biological target: HLA-A*0206 (Homo sapiens, UniProt P04439, D140Y/D185E/D98H/E176V/E277Q/F33Y/G131W/G231S/I119V/I121R/I166T/I218V/L300P/L318F/N151K/N90K/P208A/P217A/Q86G/Q94H/R138H/R169H/T345S); assay: purified HLA class I binding assay, A*0206; details: HIV A02 super motif peptides, Table VIII; unit not given
[8] = biological target: HLA-A*0202 (Homo sapiens, UniProt P04439, D140Y/D185E/D98H/E176V/E277Q/G131W/G231S/I119L/I121R/I166T/I218V/L180W/L300P/L318F/N151K/N90K/P208A/P217A/Q67R/Q86G/Q94H/R138H/R169H/T345S); assay: purified HLA class I binding assay, A*0202; details: HIV A02 super motif peptides, Table VIII; unit not given
[9] = biological target: HLA-A*0203 (Homo sapiens, UniProt P04439, A173T/D140Y/D185E/D98H/E277Q/G131W/G231S/I119V/I121R/I166T/I218V/L180W/L300P/L318F/N151K/N90K/P208A/P217A/Q86G/Q94H/R138H/R169H/T345S); assay: purified HLA class I binding assay, A*0203; details: HIV A02 super motif peptides, Table VIII; unit not given
[10] = biological target: HLA-A*6802 (Homo sapiens, UniProt P04439, A269V/D140Y/D185E/E176V/E277Q/E87N/F33Y/G231S/I121R/I166T/I218V/L180W/L300P/L318F/N151K/P208A/P217A/Q86R/R138H/R169H/S129P/T345S/V36M); assay: purified HLA class I binding assay, A*6802; details: HIV A02 super motif peptides, Table VIII; unit not given
[11] = biological target: T2, HLA-DRB5*0101 (DR2w2β2) (Homo sapiens, UniProt P01903+Q30154); assay: biochemical; format: binding
T2 construct: expressed in transfected cells

[12] = biological target: T3, HLA-DRB1*0401 (DR4w4) (Homo sapiens, UniProt P01903+P01911, A100K/A169T/F76Y/I96L/K127E/L162R/M171V/N62H/P40V/Q125Y/R42H/S133A/S149N/S66Y/V115G/V209L/W38E); assay: purified HLA class II binding assay, DRB1*0401 (DR4w4); details: HIV DR super motif peptides; unit not given
T3 construct: endogenous in cells; host or cells: Preiss
T3 sequence (P01903 26-254 partner, other chains not shown): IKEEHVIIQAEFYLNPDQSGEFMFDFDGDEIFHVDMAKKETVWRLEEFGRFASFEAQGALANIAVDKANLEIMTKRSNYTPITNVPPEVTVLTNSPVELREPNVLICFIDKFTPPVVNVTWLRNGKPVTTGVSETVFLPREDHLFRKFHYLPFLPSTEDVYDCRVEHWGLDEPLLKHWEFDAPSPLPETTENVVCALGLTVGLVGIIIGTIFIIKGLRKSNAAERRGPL

[13] = biological target: T4, HLA-DRB1*1101 (DR5w11) (Homo sapiens, UniProt P01903+P01911, A100R/A169T/A87E/I96F/K41T/L162R/M171V/P40S/Q125H/Q178H/Q39Y/Q99D/R42S/S66Y/T262R/V115G/W38E); assay: biochemical; format: binding
T4 construct: endogenous in cells
T4 sequence (P01903 26-254, other chains not shown): as the sequence (P01903 26-254 partner, other chains not shown) above

[14] = biological target: T5, HLA-DRB1*0701 (DR7) (Homo sapiens, UniProt P01903+P01911, A100R/A102G/A103Q/D57E/D86V/E43K/F76Y/K127E/L162R/M171V/P40G/Q125H/Q99D/R33Q/R42Y/R54Q/S133A/S66F/T210M/V115G/Y107V/Y59L/Y89S); assay: biochemical; format: binding
T5 construct: endogenous in cells; host or cells: Pitout

[15] = HIV A03 supermotif peptides, Table IX, unit not given
[16] = HIV A03 supermotif peptides, unit not given
[17] = HIV A24 motif peptides, purified HLA-A24 molecule, unit not given
[18] = HIV A24 motif peptides, binding value for purified HLA-A24 molecule, A*2401, unit not given
[19] = HIV A03 motif peptides, Table XVI, unit not given
[20] = HIV A03 super motif peptides, binding value
[21] = Table IX, HIV A03 super motif peptides, binding value, unit not given
[22] = HIV A03 super motif peptides, binding value, unit not given

PYNEWTLEL [Peptide 25.0128]
IC50 [1]: 86 nM

PYNLWILEL
A*2401 (binding information) ([1]; HIV A24 supermotif peptides, A*2401, unit not given, so probably a relative binding value): 0.1400

QARYLAVER
A*6801 binding information ([2]; HIV A03 supermotif peptides): 0.0007
A*1101 (binding information) [3, 15]: 0.0003
A*3101 binding information ([4]; HIV A03 supermotif peptides): 0.0320
A*0301 binding information [5, 16]: 0.0009

QLLFIIIFRI
A*0201 binding [6]: 0.0530
A*0206 binding [7]: 0.0023
A*0202 binding [8]: 0.0002
A*0203 binding [9]: 0.0004
A*6802 binding [10]: 0.0840

QMAVFIIINF
A*2401 (binding information) [1, 17]: 0.0190
A*2401 (binding information) ([1]; HIV A24 supermotif peptides, Table X, A*2401, unit not given): 0.0190

QMVIIQAISPR
A*6801 binding information ([2]; HIV A03 supermotif peptides): 0.0430
A*1101 (binding information) [3, 15]: 0.0010
A*3101 binding information ([4]; HIV A03 supermotif peptides): 0.0740
A0301 (binding information) ([5]; HIV A03 motif peptides, Table XVI, binding value unit not given): 0.0260
A*0301 binding information [5, 16]: 0.0260

RFAVPGLL
A*2401 (binding information) [1, 18]: 0.0100

TLFCASDAK [1273.06]
IC50 [2]: 191 nM
IC50 [4]: 10600 nM

TVQCTIIGIK
A*6801 binding information ([2]; HIV A03 supermotif peptides): 0.0190
A*1101 (binding information) [3, 15]: 0.0460
A*3101 binding information ([4]; HIV A03 supermotif peptides): 0.0042
A0301 (binding information) [5, 19]: 0.0021
A*0301 binding information [5, 16]: 0.0021

TVQCTIIGIR
A*6801 binding information ([2]; HIV A03 supermotif peptides): 0.0120
A*1101 (binding information) [3, 15]: 0.0008
A*1101 (binding information) ([3]; Table XVII, HIV A11 motif peptides, binding value for purified HLA-A*1101, unit not given): 0.0008
A*3101 binding information ([4]; HIV A03 supermotif peptides): 0.0880
A0301 (binding information) [5, 19]: 0.0008
A*0301 binding information [5, 16]: 0.0008

VIFMFSALSEGATPQ
DR2w2β2 binding [11]: −0.0014
DR4w4 binding [12]: 0.0058
DR5w11 binding [13]: −0.0010
DR7 binding [14]: −0.0007

VTVYYGVPVWKEATI
DR2w2β2 binding [11]: 0.0270
DR4w4 binding [12]: 0.0071
DR5w11 binding [13]: 0.0021
DR7 binding [14]: 0.0160

VWKEATITLF
A*2401 (binding information) [1, 18]: 0.2700

WMGYELIIPDK
A*6801 binding information [2, 20]: 0.0003
A*1101 (binding information) [3, 21]: 0.0004
A*1101 (binding information) ([3]; Table XVII, HIV A11 motif peptides, binding value A*1101, unit not given): 0.0004
A*3101 binding information [4, 20]: 0.0009
A*0301 binding information [5, 22]: 0.0005

YLAWVPAIIK
A*6801 binding information [2, 20]: 4.0000
A*1101 (binding information) [3, 21]: 0.0570
A*1101 (HIV A11 Motif Peptides with Binding Information) ([3]; binding value to purified HLA-A*1101 in Table XVII, unit not given): 0.0570
A*3101 binding information [4, 20]: 0.0550
A0301 binding ([5]; HIV A03 motif peptides, Table XVI, column A0301, unit not given): 0.0770
A*0301 binding information [5, 22]: 0.0770

YWQATWIPE
A*2401 (binding information) [1, 17]: 0.0660
A*2401 (binding information) ([1]; HIV A24 supermotif peptides, binding value printed without unit in Table X): 0.0660
